Results: paper PMC12416549 (2024)

T1: TNFR1 (Homo sapiens, UniProt P19438)
T1 chain: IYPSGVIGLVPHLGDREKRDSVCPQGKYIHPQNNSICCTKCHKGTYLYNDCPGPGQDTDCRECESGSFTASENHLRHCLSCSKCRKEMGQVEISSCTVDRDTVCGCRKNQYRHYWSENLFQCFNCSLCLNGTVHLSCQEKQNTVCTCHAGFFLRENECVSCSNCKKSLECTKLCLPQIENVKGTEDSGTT


Molecular target: T1, TNFR1
Assay: yeast display SC50

| Binder | apparent Kd (screen) |
| --- | --- |
| V71N (designed binder) MTLQELLREEALRRAEAEAFRYALELLAEKFPEQKEYLLDLAEEIESQIRSLSGVDVEDVRKFLDKEWAWNKELLAEHPAELAEVEAARAARLAELRAEVEAKVAA | 0.869 nM |
| E86F (designed binder) MTLQELLREEALRRAEAEAFRYALELLAEKFPEQKEYLLDLAEEIESQIRSLSGVDVEDVRKFLDKEWAWVKELLAEHPAELAEVFAARAARLAELRAEVEAKVAA | 2.25 nM |
| A94W (designed binder) MTLQELLREEALRRAEAEAFRYALELLAEKFPEQKEYLLDLAEEIESQIRSLSGVDVEDVRKFLDKEWAWVKELLAEHPAELAEVEAARAARLWELRAEVEAKVAA | 0.539 nM |
| L41N (designed binder) MTLQELLREEALRRAEAEAFRYALELLAEKFPEQKEYLLDNAEEIESQIRSLSGVDVEDVRKFLDKEWAWVKELLAEHPAELAEVEAARAARLAELRAEVEAKVAA | 2.05 nM |
| R97G (designed binder) MTLQELLREEALRRAEAEAFRYALELLAEKFPEQKEYLLDLAEEIESQIRSLSGVDVEDVRKFLDKEWAWVKELLAEHPAELAEVEAARAARLAELGAEVEAKVAA | 0.539 nM |
| W68P (designed binder) MTLQELLREEALRRAEAEAFRYALELLAEKFPEQKEYLLDLAEEIESQIRSLSGVDVEDVRKFLDKEPAWVKELLAEHPAELAEVEAARAARLAELRAEVEAKVAA | 7.78 nM |
| V71E (designed binder) MTLQELLREEALRRAEAEAFRYALELLAEKFPEQKEYLLDLAEEIESQIRSLSGVDVEDVRKFLDKEWAWEKELLAEHPAELAEVEAARAARLAELRAEVEAKVAA | 0.869 nM |
| V57H (designed binder) MTLQELLREEALRRAEAEAFRYALELLAEKFPEQKEYLLDLAEEIESQIRSLSGVDHEDVRKFLDKEWAWVKELLAEHPAELAEVEAARAARLAELRAEVEAKVAA | 0.593 nM |
| E16M (designed binder) MTLQELLREEALRRAMAEAFRYALELLAEKFPEQKEYLLDLAEEIESQIRSLSGVDVEDVRKFLDKEWAWVKELLAEHPAELAEVEAARAARLAELRAEVEAKVAA | 1.05 nM |
| A17G (designed binder) MTLQELLREEALRRAEGEAFRYALELLAEKFPEQKEYLLDLAEEIESQIRSLSGVDVEDVRKFLDKEWAWVKELLAEHPAELAEVEAARAARLAELRAEVEAKVAA | 0.539 nM |
| E95Q (designed binder) MTLQELLREEALRRAEAEAFRYALELLAEKFPEQKEYLLDLAEEIESQIRSLSGVDVEDVRKFLDKEWAWVKELLAEHPAELAEVEAARAARLAQLRAEVEAKVAA | 0.446 nM |
| W68C (designed binder) MTLQELLREEALRRAEAEAFRYALELLAEKFPEQKEYLLDLAEEIESQIRSLSGVDVEDVRKFLDKECAWVKELLAEHPAELAEVEAARAARLAELRAEVEAKVAA | 2.48 nM |
| E99F (designed binder) MTLQELLREEALRRAEAEAFRYALELLAEKFPEQKEYLLDLAEEIESQIRSLSGVDVEDVRKFLDKEWAWVKELLAEHPAELAEVEAARAARLAELRAFVEAKVAA | 0.593 nM |
| E33D (designed binder) MTLQELLREEALRRAEAEAFRYALELLAEKFPDQKEYLLDLAEEIESQIRSLSGVDVEDVRKFLDKEWAWVKELLAEHPAELAEVEAARAARLAELRAEVEAKVAA | 0.49 nM |
| V71G (designed binder) MTLQELLREEALRRAEAEAFRYALELLAEKFPEQKEYLLDLAEEIESQIRSLSGVDVEDVRKFLDKEWAWGKELLAEHPAELAEVEAARAARLAELRAEVEAKVAA | 22.2 nM |
| L39E (designed binder) MTLQELLREEALRRAEAEAFRYALELLAEKFPEQKEYLEDLAEEIESQIRSLSGVDVEDVRKFLDKEWAWVKELLAEHPAELAEVEAARAARLAELRAEVEAKVAA | 2.48 nM |
| L24R (designed binder) MTLQELLREEALRRAEAEAFRYARELLAEKFPEQKEYLLDLAEEIESQIRSLSGVDVEDVRKFLDKEWAWVKELLAEHPAELAEVEAARAARLAELRAEVEAKVAA | 7.78 nM |
| S53K (designed binder) MTLQELLREEALRRAEAEAFRYALELLAEKFPEQKEYLLDLAEEIESQIRSLKGVDVEDVRKFLDKEWAWVKELLAEHPAELAEVEAARAARLAELRAEVEAKVAA | 2.73 nM |

| Binder | apparent Kd (screen) |
| --- | --- |
| L26W (designed binder) MTLQELLREEALRRAEAEAFRYALEWLAEKFPEQKEYLLDLAEEIESQIRSLSGVDVEDVRKFLDKEWAWVKELLAEHPAELAEVEAARAARLAELRAEVEAKVAA | 0.405 nM |
| E29A (designed binder) MTLQELLREEALRRAEAEAFRYALELLAAKFPEQKEYLLDLAEEIESQIRSLSGVDVEDVRKFLDKEWAWVKELLAEHPAELAEVEAARAARLAELRAEVEAKVAA | 0.718 nM |
| R92E (designed binder) MTLQELLREEALRRAEAEAFRYALELLAEKFPEQKEYLLDLAEEIESQIRSLSGVDVEDVRKFLDKEWAWVKELLAEHPAELAEVEAARAAELAELRAEVEAKVAA | 1.05 nM |
| A11H (designed binder) MTLQELLREEHLRRAEAEAFRYALELLAEKFPEQKEYLLDLAEEIESQIRSLSGVDVEDVRKFLDKEWAWVKELLAEHPAELAEVEAARAARLAELRAEVEAKVAA | 0.718 nM |
| I45T (designed binder) MTLQELLREEALRRAEAEAFRYALELLAEKFPEQKEYLLDLAEETESQIRSLSGVDVEDVRKFLDKEWAWVKELLAEHPAELAEVEAARAARLAELRAEVEAKVAA | 10.4 nM |
| V55Q (designed binder) MTLQELLREEALRRAEAEAFRYALELLAEKFPEQKEYLLDLAEEIESQIRSLSGQDVEDVRKFLDKEWAWVKELLAEHPAELAEVEAARAARLAELRAEVEAKVAA | 1.05 nM |
| Q48W (designed binder) MTLQELLREEALRRAEAEAFRYALELLAEKFPEQKEYLLDLAEEIESWIRSLSGVDVEDVRKFLDKEWAWVKELLAEHPAELAEVEAARAARLAELRAEVEAKVAA | 29.5 nM |
| E81H (designed binder) MTLQELLREEALRRAEAEAFRYALELLAEKFPEQKEYLLDLAEEIESQIRSLSGVDVEDVRKFLDKEWAWVKELLAEHPAHLAEVEAARAARLAELRAEVEAKVAA | 0.446 nM |
| A105Q (designed binder) MTLQELLREEALRRAEAEAFRYALELLAEKFPEQKEYLLDLAEEIESQIRSLSGVDVEDVRKFLDKEWAWVKELLAEHPAELAEVEAARAARLAELRAEVEAKVQA | 0.539 nM |
| A91Q (designed binder) MTLQELLREEALRRAEAEAFRYALELLAEKFPEQKEYLLDLAEEIESQIRSLSGVDVEDVRKFLDKEWAWVKELLAEHPAELAEVEAARAQRLAELRAEVEAKVAA | 0.49 nM |
| W70L (designed binder) MTLQELLREEALRRAEAEAFRYALELLAEKFPEQKEYLLDLAEEIESQIRSLSGVDVEDVRKFLDKEWALVKELLAEHPAELAEVEAARAARLAELRAEVEAKVAA | 22.2 nM |
| K103H (designed binder) MTLQELLREEALRRAEAEAFRYALELLAEKFPEQKEYLLDLAEEIESQIRSLSGVDVEDVRKFLDKEWAWVKELLAEHPAELAEVEAARAARLAELRAEVEAHVAA | 0.49 nM |
| V57E (designed binder) MTLQELLREEALRRAEAEAFRYALELLAEKFPEQKEYLLDLAEEIESQIRSLSGVDEEDVRKFLDKEWAWVKELLAEHPAELAEVEAARAARLAELRAEVEAKVAA | 1.86 nM |
| A98Y (designed binder) MTLQELLREEALRRAEAEAFRYALELLAEKFPEQKEYLLDLAEEIESQIRSLSGVDVEDVRKFLDKEWAWVKELLAEHPAELAEVEAARAARLAELRYEVEAKVAA | 0.539 nM |
| L12N (designed binder) MTLQELLREEANRRAEAEAFRYALELLAEKFPEQKEYLLDLAEEIESQIRSLSGVDVEDVRKFLDKEWAWVKELLAEHPAELAEVEAARAARLAELRAEVEAKVAA | 0.446 nM |
| E77H (designed binder) MTLQELLREEALRRAEAEAFRYALELLAEKFPEQKEYLLDLAEEIESQIRSLSGVDVEDVRKFLDKEWAWVKELLAHHPAELAEVEAARAARLAELRAEVEAKVAA | 0.653 nM |
| L41H (designed binder) MTLQELLREEALRRAEAEAFRYALELLAEKFPEQKEYLLDHAEEIESQIRSLSGVDVEDVRKFLDKEWAWVKELLAEHPAELAEVEAARAARLAELRAEVEAKVAA | 13.8 nM |
